Test results published in article PMC10333884, “Large‐scale phosphomimetic screening identifies phospho‐modulated motif‐based protein interactions” (Molecular Systems Biology, 2023).
Values joined by “and” are separate entries in the source; they are usually repeats but may differ in a detail not shown here. Identical values can stand only once. Each block holds one substance with its values, some of them ahead of it.

Columns and labels:
[1] = target: GABARAPL2 (human) (UniProt P60520); test: fluorescence polarisation
Sequence of GABARAPL2 (human) (P60520 whole entry, the tested form may be a part): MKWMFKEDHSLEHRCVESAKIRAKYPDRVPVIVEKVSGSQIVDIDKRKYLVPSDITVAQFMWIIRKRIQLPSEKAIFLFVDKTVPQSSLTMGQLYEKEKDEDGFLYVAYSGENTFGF

[2] = target: MAP1LC3A (human); test: fluorescence polarisation; displacement of a FITC-labelled probe peptide (5 nM in the measurement) from the protein domain (1-2 fold over the probe's KD) by a dilution series of unlabelled peptide; room temperature; 50 mM sodium phosphate pH 7.4; KD calculated from the displacement curve; for KPNA4 ARM one probe for each pocket
[3] = target: MAP1LC3B (human) (UniProt Q9GZQ8); test: as above
[4] = target: Clathrin N-terminal domain (NTD) (human) (UniProt Q00610); test: ITC; iTC200; peptide titrated against the protein domain in approximately 10-fold excess, 16 injections; 50 mM sodium phosphate buffer pH 7.4, 1 mM DTT; constants of single runs and their average
Sequence of Clathrin N-terminal domain (NTD) (human) (Q00610 1-364): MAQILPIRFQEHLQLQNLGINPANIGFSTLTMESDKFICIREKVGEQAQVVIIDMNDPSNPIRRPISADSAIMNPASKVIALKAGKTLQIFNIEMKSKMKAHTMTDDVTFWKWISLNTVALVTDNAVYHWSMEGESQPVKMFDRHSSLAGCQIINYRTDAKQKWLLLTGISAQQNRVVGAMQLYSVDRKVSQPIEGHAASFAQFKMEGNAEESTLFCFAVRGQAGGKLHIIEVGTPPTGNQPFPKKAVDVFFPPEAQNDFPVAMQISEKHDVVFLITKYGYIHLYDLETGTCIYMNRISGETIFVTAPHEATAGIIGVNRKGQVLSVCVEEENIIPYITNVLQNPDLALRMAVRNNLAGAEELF

[5] = target: Clathrin N-terminal domain (NTD) (human) (UniProt Q00610); test: fluorescence polarisation
[6] = target: Clathrin N-terminal domain (NTD) (human) (UniProt Q00610); test: fluorescence polarisation; displacement of a FITC-labelled probe peptide (5 nM in the measurement) from the protein domain (1-2 fold over the probe's KD) by a dilution series of unlabelled peptide; room temperature; 50 mM sodium phosphate pH 7.4; KD calculated from the displacement curve; for KPNA4 ARM one probe for each pocket
[7] = target: Clathrin N-terminal domain (NTD) (human) (UniProt Q00610); test: as above; remark: listed apart in the source
[8] = target: Clathrin N-terminal domain (NTD) (human) (UniProt Q00610); test: ITC; peptide titrated against protein domain in about 10-fold excess, 16 injections; 50 mM sodium phosphate pH 7.4, 1 mM DTT
[9] = target: KPNA4 ARM ARM domain (UniProt O00629); test: FP displacement, major-pocket FITC probe; conditions: reference: unphosphorylated peptide
[10] = target: KPNA4 ARM ARM domain (UniProt O00629); test: FP displacement, minor-pocket FITC probe; conditions: reference: unphosphorylated peptide
[11] = target: GGA1 VHS domain (human) (UniProt Q9UJY5); test: ITC; iTC200; peptide titrated against the protein domain in approximately 10-fold excess, 16 injections; 50 mM sodium phosphate buffer pH 7.4, 1 mM DTT; constants of single runs and their average
Sequence of GGA1 VHS domain (human) (Q9UJY5 17-147): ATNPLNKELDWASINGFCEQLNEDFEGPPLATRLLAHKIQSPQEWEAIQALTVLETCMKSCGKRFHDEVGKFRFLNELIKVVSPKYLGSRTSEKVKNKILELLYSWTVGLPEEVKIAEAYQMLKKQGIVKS

[12] = target: MAP1LC3B ATG8 (human); test: as above
[13] = target: GABARAPL2 (human) (UniProt P60520); test: fluorescence polarisation; displacement of a FITC-labelled probe peptide (5 nM in the measurement) from the protein domain (1-2 fold over the probe's KD) by a dilution series of unlabelled peptide; room temperature; 50 mM sodium phosphate pH 7.4; KD calculated from the displacement curve; for KPNA4 ARM one probe for each pocket
[14] = target: 14‐3‐3 theta (UniProt P27348); test: FP displacement of FITC probe peptide; conditions: reference: unphosphorylated peptide; sites S375

Kd [1]: 1.8 µM
Kd [2]: 3.1 µM
Kd [3]: 4.6 µM
Substance: ATG4C_(444–458), phosphomimetic (E) (from UniProt Q96DT6 444-458) (peptide)

Kd [1]: 0.8 µM
Kd [2]: 5.2 µM
Kd [3]: 7.1 µM
Substance: ATG4C_(444–458), wild‐type (from UniProt Q96DT6 444-458) (peptide)

stoichiometry N [4]: 0.552 and 0.557 and 0.458
Substance: HURP 832-846 peptide, phosphomimetic (S839 to glutamate) (from UniProt Q15398 832-846)

Kd [5]: 23 µM
Substance: HURP_(832–846), phosphomimetic (E) (from UniProt Q15398 832-846) (peptide)

Kd [6]: 150 µM
Kd [7]: 134 µM
Kd [8]: 250 µM
Substance: HURP_(832–846), wild‐type (from UniProt Q15398 832-846) (peptide)

KD ([9]; sites S125): same; reference 0.15 ± 0.01
KD ([10]; sites S125): stronger; reference 68 ± 4
Substance: RANBP3 114-129 (from UniProt Q9H6Z4) pS125 peptide (p+6)

stoichiometry N [11]: 0.97 and 0.905
Substance: RNF11 6-21 peptide, phosphomimetic (from UniProt Q9Y3C5 6-21)

stoichiometry N [11]: 0.722 and 0.731
Substance: RNF11 6-21 peptide, phosphorylated (from UniProt Q9Y3C5 6-21)

stoichiometry N [11]: 0.8
Substance: RNF11 6-21 peptide, wild-type (from UniProt Q9Y3C5 6-21)

KD ([9]; sites S266): weaker; reference 0.24 ± 0.04
KD ([10]; sites S266): weaker; reference 14.0 ± 0.7
Substance: SQSTM1 258-272 (from UniProt Q13501) phosphorylated peptide

stoichiometry N [12]: 1.09 and 1.17 and 0.932
Substance: TBK1 164-179 peptide, phosphorylated (from UniProt Q9UHD2 164-179)

Kd [13]: 12.4 µM
Kd [3]: 2.1 µM
Substance: TBK1_(164–179), phosphomimetic (E) (from UniProt Q9UHD2 164-179) (peptide)

Kd [13]: 2.8 µM
Substance: TBK1_(164–179), phosphorylated (pS) (from UniProt Q9UHD2 164-179) (peptide)

Kd [13]: 19 µM
Kd [3]: 10.5 µM
Substance: TBK1_(164–179), wild‐type (from UniProt Q9UHD2 164-179) (peptide)

binding against the reference [14]: gained
Substance: TOM1 366-382 (from UniProt O60784) pS375 peptide

Kd [2]: 78 µM
Kd [3]: 225 µM
Substance: TPD52L2_(91–106), phosphomimetic (E) (from UniProt O43399 91-106) (peptide)

Kd [7]: < 3 µM
Kd [8]: 5 µM
Substance: pS839 HURP_(832–846) (from UniProt Q15398 832-846) (peptide)
